According to US20140056903A1 (Regeneron, published 2014):

Key:
[1] = biological target: T1, human GFRα1 expressed with only a C-terminal human Fc tag (human); assay: BLI Octet, antigen captured on anti-hFc tips
T1 construct: also called hGFRα1-hFc
Experimental: (§1) The ability of anti-GFRα3 antibodies to bind to GDNF-family receptors was assessed using an Octet Red biosensor (Fortebio, Inc.). Antibodies were tested for binding to either human GFRα1 expressed with a C-terminal human Fc tag and a hexahistidine tag (hGFRα1-hFc-6His, R&D Systems #714-GR), human GFRα1 expressed with only a C-terminal human Fc tag (hGFRα1-hFc; SEQ ID: 376), human GFRα2 expressed with a C-terminal human Fc tag and a hexahistidine tag (hGFRα2-hFc-6His, R&D Systems #613-FR), human GFRα3 expressed with a C-terminal human Fc tag (hGFRα3-hFc, SEQ ID:371), or an irrelevant human Fc tagged protein. Antigens were captured onto anti-human Fc sensor tips from 10 ug/mL solutions for 5 minutes. The coated sensor tips were then blocked with a 100 ug/mL solution of irrelevant human Fc antibodies for 5 minutes. Blocked sensor tips were then submerged into wells containing […] of each anti-GFRα3 antibody or buffer alone for 10 minutes. The experiment was performed at 25° C. with a flow rate of 1000 rpm using HBST+BSA buffer (10 mM HEPES, 150 mM NaCl, 3 mM EDTA, 0.05% w/v Surfactant P20, 0.1 mg/mL BSA, pH 7.4). The binding response (measured in units of nm) at each step of the experiment was monitored and recorded.

[2] = biological target: T2, human GFRα2 expressed with a C-terminal human Fc tag and a hexahistidine tag (human, UniProt O00451 22-441, limits assumed); assay: BLI Octet, antigen captured on anti-hFc tips
T2 construct: bought protein; also called hGFRα2-hFc-6His; hGFRα2-hFc-6his
T2 sequence (looked up): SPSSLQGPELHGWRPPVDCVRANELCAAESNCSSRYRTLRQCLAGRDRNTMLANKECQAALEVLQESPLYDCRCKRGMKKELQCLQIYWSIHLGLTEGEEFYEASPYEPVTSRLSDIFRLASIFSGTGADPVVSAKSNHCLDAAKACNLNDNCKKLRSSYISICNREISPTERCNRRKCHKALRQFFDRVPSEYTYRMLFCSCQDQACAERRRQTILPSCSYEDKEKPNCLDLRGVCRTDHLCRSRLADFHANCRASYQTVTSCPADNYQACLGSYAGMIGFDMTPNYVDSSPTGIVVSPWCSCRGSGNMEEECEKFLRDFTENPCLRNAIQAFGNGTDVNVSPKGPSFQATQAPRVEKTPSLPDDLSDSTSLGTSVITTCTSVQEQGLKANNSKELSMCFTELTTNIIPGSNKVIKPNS
Experimental: as §1

[3] = biological target: T3, human GFRα3 expressed with a C-terminal hFc tag (human); assay: BLI Octet, antigen on anti-hFc tips, 100 ug/mL Ab
T3 construct: also called hGFRα3-hFc
Experimental: as §1

[4] = biological target: T1, human GFRα1 expressed with only a …; assay: BLI Octet, antigen on anti-hFc tips, 100 ug/mL Ab
Experimental: as §1
Target sequence in this assay (chain, as listed by the source limits assumed): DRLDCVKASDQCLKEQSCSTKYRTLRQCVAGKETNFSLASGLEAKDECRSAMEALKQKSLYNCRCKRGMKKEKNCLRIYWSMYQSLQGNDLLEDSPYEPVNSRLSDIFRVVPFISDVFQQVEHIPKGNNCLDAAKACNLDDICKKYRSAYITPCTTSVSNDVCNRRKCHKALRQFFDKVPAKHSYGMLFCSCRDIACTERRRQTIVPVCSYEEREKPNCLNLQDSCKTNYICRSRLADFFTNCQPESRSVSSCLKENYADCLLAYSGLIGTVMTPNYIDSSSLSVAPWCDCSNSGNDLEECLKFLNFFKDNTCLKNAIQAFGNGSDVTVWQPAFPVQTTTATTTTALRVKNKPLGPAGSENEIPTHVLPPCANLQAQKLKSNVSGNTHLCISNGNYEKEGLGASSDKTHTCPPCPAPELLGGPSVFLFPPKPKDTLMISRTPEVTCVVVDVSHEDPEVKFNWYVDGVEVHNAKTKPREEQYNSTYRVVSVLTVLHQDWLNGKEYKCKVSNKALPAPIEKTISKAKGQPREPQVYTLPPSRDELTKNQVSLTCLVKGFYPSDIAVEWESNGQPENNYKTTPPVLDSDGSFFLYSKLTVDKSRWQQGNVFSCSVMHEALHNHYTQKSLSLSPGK

[5] = biological target: T4, human GFRα1 expressed with a C-terminal human Fc tag and a hexahistidine tag (human, UniProt P56159 25-429, limits assumed); assay: BLI Octet, antigen on anti-hFc tips, 100 ug/mL Ab
T4 construct: bought protein; also called hGFRα1-hFc-6His; hGFRα1-hFc-6his
T4 sequence (looked up): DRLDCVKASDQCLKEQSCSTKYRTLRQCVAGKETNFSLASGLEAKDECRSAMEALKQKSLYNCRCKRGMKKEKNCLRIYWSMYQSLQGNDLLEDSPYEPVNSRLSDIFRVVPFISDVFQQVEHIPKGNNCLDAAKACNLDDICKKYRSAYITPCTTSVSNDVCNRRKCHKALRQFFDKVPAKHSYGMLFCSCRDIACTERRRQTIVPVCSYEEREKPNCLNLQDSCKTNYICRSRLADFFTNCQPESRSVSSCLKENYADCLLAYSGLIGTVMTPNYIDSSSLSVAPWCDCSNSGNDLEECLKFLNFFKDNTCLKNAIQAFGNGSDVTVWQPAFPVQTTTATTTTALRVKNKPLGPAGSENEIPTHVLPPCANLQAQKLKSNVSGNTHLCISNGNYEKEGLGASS
Experimental: as §1

[6] = biological target: T2, human GFRα2 expressed with a C-terminal …; assay: BLI Octet, antigen on anti-hFc tips, 100 ug/mL Ab
Experimental: as §1

[7] = biological target: T5, irrelevant human Fc tagged protein; assay: BLI Octet, antigen on anti-hFc tips, 100 ug/mL Ab
T5 construct: negative control antigen; also called Irrelevant hFc tagged protein
Experimental: as §1

[8] = biological target: T3, human GFRα3 expressed with a C-terminal …; assay: blocking ELISA 1, hGFRα3-hFc to coated hARTEMIN-mmH
Experimental: A constant amount of human GFRα3 fused with a C-terminal human Fc tag (hGFRα3-hFc; SEQ ID:371) at 120 pM was pre-mixed with varying amounts of antibodies, ranging from 0 to ˜10 nM in serial dilutions, followed by an 1 hour incubation at room temperature (RT) to allow antibody-hGFRα3-hFc binding to reach equilibrium. The equilibrated sample solutions were then transferred to the hARTEMIN-mmH-coated plate. […] Absorbance was recorded at 450 nm on a Victor X5 plate reader (Perkin Elmer) to determine the amount of free hGFRα3-hFc in the pre-equilibrated hGFRα3-hFc-antibody solutions that was able to bind to the plate coated with hARTEMIN-mmH. IC₅₀ values, defined as the concentration of antibody required to reduce the signal from a constant concentration of hGFRα3-hFc by 50%, were calculated from the data using Prism software from GraphPad. The absorbance measured at the constant amount of 120 pM hGFRα3-hFc in the absence of anti-GFRα3 antibody is defined as 0% blocking and the absorbance with no added hGFRα3-hFc is defined as 100% blocking. The observed absorbance in the wells containing the highest antibody concentration was used to calculate the maximum blocking percent shown in the table.

T3 sequence (chain, as listed by the source limits assumed): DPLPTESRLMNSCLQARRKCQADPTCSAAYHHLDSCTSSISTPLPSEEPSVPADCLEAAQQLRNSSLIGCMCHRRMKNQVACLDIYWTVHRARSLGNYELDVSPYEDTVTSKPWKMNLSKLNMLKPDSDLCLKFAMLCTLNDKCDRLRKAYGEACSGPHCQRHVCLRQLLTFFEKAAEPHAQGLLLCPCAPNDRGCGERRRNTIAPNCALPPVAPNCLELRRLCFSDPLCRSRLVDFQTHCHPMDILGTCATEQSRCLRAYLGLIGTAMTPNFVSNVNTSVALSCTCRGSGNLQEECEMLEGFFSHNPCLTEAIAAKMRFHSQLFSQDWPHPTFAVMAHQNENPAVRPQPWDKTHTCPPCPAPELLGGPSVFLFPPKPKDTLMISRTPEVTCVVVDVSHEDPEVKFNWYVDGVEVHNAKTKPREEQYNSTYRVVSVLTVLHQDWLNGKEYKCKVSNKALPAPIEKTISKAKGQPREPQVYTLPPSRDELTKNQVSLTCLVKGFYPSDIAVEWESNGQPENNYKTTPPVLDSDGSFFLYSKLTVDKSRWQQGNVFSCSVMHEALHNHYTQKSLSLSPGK

B1: H4H2352S (antibody, human IgG4, V domains shown)
VH: EVQLVQSGAEVKKPGASVKVSCKASGYTFTNYGITWVRQAPGQGLEWMGWISAYNGNTGYAQKFQGRVTMTTDTSTSTAYMELRSLRSDDTAVYYCAREDYDFWRAFDIWGQGTMVTVSS
VL: EIVLTQSPGTLSLSPGERATLSCRASQSVSSTYLAWLQQKPGQAPRLLIYGASSRATGIPDRFSGSGSGTDFTLTINRLEPEDFAVYYCQQYAYSPYTFGQGTKLEIK
notes: human IgG4 Fc (H4H); also called H4H2352S-1
binding result [1]: no binding (tested: 100 ug/mL)
binding result [2]: no binding (tested: 100 ug/mL)
Bound (nm) [3]: 1.25 nm
Bound (nm) [4]: 0.02 nm
Bound (nm) [5]: 0.03 nm
Bound (nm) [6]: 0.04 nm
Bound (nm) [7]: 0.03 nm
% max blocking [8]: 51%
IC50 [8]: 0.0658 nM
